Numbering of substitutions follows the chain as printed.
B1: ureA promoter 32 bp (FA) (dsDNA)
DNA 1: ATATAACACTAATTCATTTTAAATAATAATTA
DNA 2: TAATTATTATTTAAAATGAATTAGTGTTATAT
B2: ureA-perf promoter 32 bp (dsDNA)
DNA 1: B1 DNA 1 with A6T, C7T, C9T
DNA 2: B1 DNA 2 with G24A, G26A, T27A

Columns and labels:
[1] = target: T1, HpNikR WT (Helicobacter pylori G27 (from vector …, UniProt A1YSQ9 1-148)); test: fluorescence anisotropy; Ni(II)-bound; FA: 5 nM DNA, 20 mM Tris pH 7.6, 100 mM NaCl, 3 mM MgSO4, temperature not stated (Ni loading 1.2 eq NiSO4 per monomer at RT). EMSA: 20 mM Tris pH 7.5, 100 mM KCl, 3 mM MgCl2, 0.1% IGEPAL, 5% glycerol, 0.1 mg/ml herring sperm DNA, RT; gel with 800 uM NiSO4 at 4 C; details: protein: recombinant; tags: none stated (untagged purification); chain copies: 4; label: fluorescein on internal thymine (T14 of strand 1); blunt
T1 sequence: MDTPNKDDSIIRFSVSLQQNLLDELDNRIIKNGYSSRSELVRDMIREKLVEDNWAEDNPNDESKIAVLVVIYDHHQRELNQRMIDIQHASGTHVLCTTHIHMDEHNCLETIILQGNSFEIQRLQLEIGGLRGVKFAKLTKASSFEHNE

[2] = target: HpNikR Q81A (Helicobacter pylori G27, UniProt A1YSQ9 1-148, Q81A); test: as above; details: protein: recombinant; tags: none stated; chain copies: 4; label: fluorescein on internal thymine (T14 of strand 1); blunt
[3] = target: HpNikR N32A (Helicobacter pylori G27, UniProt A1YSQ9 1-148, N32A); test: as above; details: protein: recombinant; tags: none stated; chain copies: 4; label: fluorescein on internal thymine (T14 of strand 1); blunt
[4] = target: HpNikR E56A (Helicobacter pylori G27, UniProt A1YSQ9 1-148, E56A); test: as above; details: protein: recombinant; tags: none stated; chain copies: 4; label: fluorescein on internal thymine (T14 of strand 1); blunt
[5] = target: T2, HpNikR K31A (Helicobacter pylori G27, UniProt A1YSQ9 1-148, K31A); test: as above; details: protein: recombinant; tags: none stated; chain copies: 4; label: fluorescein on internal thymine (T14 of strand 1); blunt
[6] = target: HpNikR T92A (Helicobacter pylori G27, UniProt A1YSQ9 1-148, T92A); test: as above; details: protein: recombinant; tags: none stated; chain copies: 4; label: fluorescein on internal thymine (T14 of strand 1); blunt
[7] = target: HpNikR E62A (Helicobacter pylori G27, UniProt A1YSQ9 1-148, E62A); test: as above; details: protein: recombinant; tags: none stated; chain copies: 4; label: fluorescein on internal thymine (T14 of strand 1); blunt
[8] = target: T1, HpNikR WT; test: fluorescence anisotropy; apo (no Ni); FA: 5 nM DNA, 20 mM Tris pH 7.6, 100 mM NaCl, 3 mM MgSO4, temperature not stated (Ni loading 1.2 eq NiSO4 per monomer at RT). EMSA: 20 mM Tris pH 7.5, 100 mM KCl, 3 mM MgCl2, 0.1% IGEPAL, 5% glycerol, 0.1 mg/ml herring sperm DNA, RT; gel with 800 uM NiSO4 at 4 C; details: protein: recombinant; tags: none stated (untagged purification); chain copies: 4; label: fluorescein on internal thymine (T14 of strand 1); blunt
[9] = target: T2, HpNikR K31A; test: as above; details: protein: recombinant; tags: none stated; chain copies: 4; label: fluorescein on internal thymine (T14 of strand 1); blunt
[10] = target: HpNikR K134A (Helicobacter pylori G27, UniProt A1YSQ9 1-148, K134A); test: as above; details: protein: recombinant; tags: none stated; chain copies: 4; label: fluorescein on internal thymine (T14 of strand 1); blunt

Row | Binder | Kd [1] [nM] | Kd [2] [nM] | Kd [3] [nM] | Kd [4] [nM] | Kd [5] [nM] | Kd [6] [nM] | Kd [7] [nM] | Kd [8] [nM] | Kd [9] [nM] | Kd [10] [nM]
1 | B1 | 4.5 ± 0.6 | 6.5 ± 1 | 4.8 ± 0.9 | 5.4 ± 0.1 | 6.8 ± 1 | 3.6 ± 0.2 | 10.1 ± 1.1 | 4900 ± 1700 | 2300 ± 500 | 1700 ± 700
2 | B2 | 4.7 ± 0.4 | 3.9 ± 1.4 | 1.3 ± 0.4 | 5.9 ± 0.8 | 4.1 ± 1 | 2.6 ± 0.5 | 2.9 ± 0.9 | 4100 ± 1100 | 1300 ± 200 | 1000 ± 300
